In patent publication US20160166638A1, “LACTOFERRIN-OSTEOPONTIN-IRON COMPLEX” (NESTEC S.A., priority 2013, published 2016):

Assay: Colour change of iron fortified strawberry-banana yoghurt after flash pasteurization (CIELAB colorimetry)
Format: physicochemical
Conditions: colour difference vs yoghurt with no iron salts; Jogolino Strawberry/Banana yoghurt, approx. 0.8 mg iron per 100 g; flash pasteurized at 105° C. for 2 minutes
Protocol: Commercial yoghurt, Nestlé Jogolino™ Strawberry/Banana yoghurt containing 15% banana puree and 10% strawberry puree, was iron fortified by the addition of different iron containing materials to 5 kg yoghurt as reported in the table below. The amounts were chosen to provide approximately 0.8 mg iron per 100 g yoghurt. A 100 g serving of yoghurt with that level of iron would provide 15% of the recommended daily amount of iron for an infant [Official Journal of the European Union, Commission Directive 2006/125/EC].
For the lactoferrin-osteopontin-iron complex (Trial B), the powder from Example 1 was added to yoghurt at a level of 28 g per 5 kg yoghurt. The resulting yoghurt composition comprised 5.6 g powder per kg which is 4 g LF-OPN-Fe complex per kg.
The yoghurts were flash pasteurized at 105° C. for 2 minutes. Colour measurements were performed in 1×1 cm polystyrene cuvettes using an X-Rite ColorEye 7000A colorimeter. The colorimeter was set up with a D65 light source, 10 degree observer angle and with specular component included. The colour difference between the yoghurt with no iron salts and the iron fortified yoghurt was measured for each iron salt and expressed as ΔEab* using the CIELAB colour scale.

B1: Lactoferrin-Fe: Lactoferrin obtained from Armor proteins, supplied with some iron complexed to it; comparison fortificant (protein, UniProt P24627 20-708, looked up)
Lactotransferrin: APRKNVRWCTISQPEWFKCRRWQWRMKKLGAPSITCVRRAFALECIRAIAEKKADAVTLDGGMVFEAGRDPYKLRPVAAEIYGTKESPQTHYYAVAVVKKGSNFQLDQLQGRKSCHTGLGRSAGWIIPMGILRPYLSWTESLEPLQGAVAKFFSASCVPCIDRQAYPNLCQLCKGEGENQCACSSREPYFGYSGAFKCLQDGAGDVAFVKETTVFENLPEKADRDQYELLCLNNSRAPVDAFKECHLAQVPSHAVVARSVDGKEDLIWKLLSKAQEKFGKNKSRSFQLFGSPPGQRDLLFKDSALGFLRIPSKVDSALYLGSRYLTTLKNLRETAEEVKARYTRVVWCAVGPEEQKKCQQWSQQSGQNVTCATASTTDDCIVLVLKGEADALNLDGGYIYTAGKCGLVPVLAENRKSSKHSSLDCVLRPTEGYLAVAVVKKANEGLTWNSLKDKKSCHTAVDRTAGWNIPMGLIVNQTGSCAFDEFFSQSCAPGADPKSRLCALCAGDDQGLDKCVPNSKEKYYGYTGAFRCLAEDVGDVAFVKNDTVWENTNGESTADWAKNLNREDFRLLCLDGTRKPVTEAQSCHLAVAPNHAVVSRSDRAAHVKQVLLHQQALFGKNGKNCPDKFCLFKSETKNLLFNDNTECLAKLGGRPTYEEYLGTEYVTAIANLKKCSTSPLLEACAFLTR
modifications: iron complex
notes: Lactoferrin obtained from Armor proteins, supplied with some iron complexed to it; comparison fortificant
  ΔEab*: 5.64
